These are literature values, as cited in article PMC7427315.

A word on the Kd: it is the constant that tells how readily two partners part at equilibrium.

The target in this data set is MAG ECD (Mus musculus) (UniProt P20917).

Consider MAG ECD (from UniProt P20917), for which the equilibrium dissociation constant (Kd) is 380 µM.
